The target of this assay is IL-2 receptor (IL-2R) on CTLL-2 cells. In words: cell-based or functional assay.

The substance “Proleukin (recombinant human IL-2, Novartis Pharma GmbH; the Aldesleukin drug employed in the clinic) (from UniProt P60568 22-153) (ligand)” came in with a mean effective dose (ED50), CTLL-2 proliferation (MTT assay) of 0.34 ng/mL.

These data come from patent US20220213163A1.
